# Source: paper PMC9482650, “Quantitative fragmentomics allow affinity mapping of interactomes” (Nature Communications, 2022)
# B1: CRB2, Q5IJ48 (peptide)
# chain: LKVPPEERLI
# B2: TMEM225B, P0DP42 (peptide)
# chain: ETQVTAETVI
# B3: DACT1, Q9NYF0 (peptide)
# chain: SGSLKLMTTV
# Target: T1, PCLO, Q9Y6V0
# T1 sequence (Q9Y6V0 4491-4600, limits assumed, looked up): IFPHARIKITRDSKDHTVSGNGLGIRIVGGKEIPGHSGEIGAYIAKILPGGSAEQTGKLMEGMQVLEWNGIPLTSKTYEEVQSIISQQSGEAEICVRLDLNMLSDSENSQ
# Assay: holdup assay
# Parameters: key: below the threshold = too weak to quantify, mostly under pKd 3.1 to 4
# Conditions: plain residues with an end cap or a label only (N-terminal biotin on a linker: ado-ado)
row,Binder,pKd
1,B1,below the threshold
2,B2,below the threshold
3,B3,below the threshold

# Target: GRIP2_7, Q9C0E4
# Assay: holdup assay
# Parameters: key: below the threshold = too weak to quantify, mostly under pKd 3.1 to 4
# Conditions: plain residues with an end cap or a label only (N-terminal biotin on a linker: ado-ado)
# Sequence of GRIP2_7, Q9C0E4 (Q9C0E4 934-1023): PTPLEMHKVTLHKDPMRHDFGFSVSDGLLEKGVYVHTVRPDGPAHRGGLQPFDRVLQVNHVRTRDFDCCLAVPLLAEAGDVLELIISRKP
row,Binder,pKd
1,B1,below the threshold
2,B2,below the threshold
3,B3,below the threshold

# Target: T2, LRRC7, Q96NW7
# T2 sequence (Q96NW7 1440-1537, limits assumed, looked up): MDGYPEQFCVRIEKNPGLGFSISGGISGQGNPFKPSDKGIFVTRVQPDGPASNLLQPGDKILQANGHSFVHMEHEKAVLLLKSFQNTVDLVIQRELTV
# Assay: holdup assay
# Parameters: key: below the threshold = too weak to quantify, mostly under pKd 3.1 to 4
# Conditions: plain residues with an end cap or a label only (N-terminal biotin on a linker: ado-ado)
row,Binder,pKd
1,B1,below the threshold
2,B2,below the threshold
3,B3,below the threshold

# Target: MAGI2_4, Q86UL8
# Assay: holdup assay
# Parameters: key: below the threshold = too weak to quantify, mostly under pKd 3.1 to 4
# Conditions: plain residues with an end cap or a label only (N-terminal biotin on a linker: ado-ado)
# Sequence of MAGI2_4, Q86UL8 (Q86UL8 772-865): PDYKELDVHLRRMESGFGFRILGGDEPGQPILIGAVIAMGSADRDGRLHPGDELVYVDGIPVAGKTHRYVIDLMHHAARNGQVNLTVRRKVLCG
row,Binder,pKd
1,B1,below the threshold
2,B2,below the threshold
3,B3,4.92

# Target: LIMK2, P53671
# Assay: holdup assay
# Parameters: key: below the threshold = too weak to quantify, mostly under pKd 3.1 to 4
# Conditions: plain residues with an end cap or a label only (N-terminal biotin on a linker: ado-ado)
# Sequence of LIMK2, P53671 (P53671 143-248): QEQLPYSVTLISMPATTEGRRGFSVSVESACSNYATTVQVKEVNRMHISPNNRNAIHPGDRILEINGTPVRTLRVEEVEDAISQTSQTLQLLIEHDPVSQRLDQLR
row,Binder,pKd
1,B1,below the threshold
2,B2,below the threshold
3,B3,below the threshold

# Target: T3, MPP7, Q5T2T1
# T3 sequence (Q5T2T1 134-230, limits assumed, looked up): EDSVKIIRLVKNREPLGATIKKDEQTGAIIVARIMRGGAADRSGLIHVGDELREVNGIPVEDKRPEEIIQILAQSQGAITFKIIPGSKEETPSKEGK
# Assay: holdup assay
# Parameters: key: below the threshold = too weak to quantify, mostly under pKd 3.1 to 4
# Conditions: plain residues with an end cap or a label only (N-terminal biotin on a linker: ado-ado)
row,Binder,pKd
1,B1,below the threshold
2,B2,below the threshold
3,B3,below the threshold

# Target: DLG2_3, Q15700
# Assay: holdup assay
# Parameters: key: below the threshold = too weak to quantify, mostly under pKd 3.1 to 4
# Conditions: plain residues with an end cap or a label only (N-terminal biotin on a linker: ado-ado)
row,Binder,pKd
1,B1,below the threshold
2,B2,3.66
3,B3,4.4

# Target: T4, SYNJ2BP, P57105
# T4 sequence (P57105 8-110, limits assumed, looked up): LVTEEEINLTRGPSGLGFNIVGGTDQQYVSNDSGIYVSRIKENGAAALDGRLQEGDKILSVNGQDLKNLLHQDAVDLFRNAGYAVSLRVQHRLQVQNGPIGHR
# Assay: holdup assay
# Parameters: key: below the threshold = too weak to quantify, mostly under pKd 3.1 to 4
# Conditions: plain residues with an end cap or a label only (N-terminal biotin on a linker: ado-ado)
row,Binder,pKd
1,B1,below the threshold
2,B2,3.92
3,B3,4.3

# Target: MAGI2_3, Q86UL8
# Assay: holdup assay
# Parameters: key: below the threshold = too weak to quantify, mostly under pKd 3.1 to 4
# Conditions: plain residues with an end cap or a label only (N-terminal biotin on a linker: ado-ado)
# Sequence of MAGI2_3, Q86UL8 (Q86UL8 600-682): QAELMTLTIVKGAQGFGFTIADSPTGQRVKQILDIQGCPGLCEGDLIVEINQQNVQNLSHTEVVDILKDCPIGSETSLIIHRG
row,Binder,pKd
1,B1,below the threshold
2,B2,below the threshold
3,B3,below the threshold

# Target: T5, NHERF3_4, Q5T2W1
# T5 sequence (Q5T2W1 373-468, limits assumed, looked up): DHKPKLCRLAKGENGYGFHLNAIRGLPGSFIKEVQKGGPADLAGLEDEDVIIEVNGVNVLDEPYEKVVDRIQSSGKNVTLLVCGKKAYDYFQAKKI
# Assay: holdup assay
# Parameters: key: below the threshold = too weak to quantify, mostly under pKd 3.1 to 4
# Conditions: plain residues with an end cap or a label only (N-terminal biotin on a linker: ado-ado)
row,Binder,pKd
1,B1,below the threshold
2,B2,below the threshold
3,B3,below the threshold

# Target: PDZRN4_1, Q6ZMN7
# Assay: holdup assay
# Parameters: key: below the threshold = too weak to quantify, mostly under pKd 3.1 to 4
# Conditions: plain residues with an end cap or a label only (N-terminal biotin on a linker: ado-ado)
# Sequence of PDZRN4_1, Q6ZMN7 (Q6ZMN7 213-318): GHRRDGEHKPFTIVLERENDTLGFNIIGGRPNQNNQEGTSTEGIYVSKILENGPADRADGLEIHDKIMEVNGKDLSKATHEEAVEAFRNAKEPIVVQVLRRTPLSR
row,Binder,pKd
1,B1,below the threshold
2,B2,below the threshold
3,B3,below the threshold

# Target: DLG1_2, Q12959
# Assay: holdup assay
# Parameters: key: below the threshold = too weak to quantify, mostly under pKd 3.1 to 4
# Conditions: plain residues with an end cap or a label only (N-terminal biotin on a linker: ado-ado)
# Sequence of DLG1_2, Q12959 (Q12959 314-412): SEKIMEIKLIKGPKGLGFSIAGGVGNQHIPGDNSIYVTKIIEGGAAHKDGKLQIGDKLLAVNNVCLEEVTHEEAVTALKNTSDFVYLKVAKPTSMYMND
row,Binder,pKd
1,B1,below the threshold
2,B2,4.37
3,B3,5.54

# Target: T6, GRIP1_7, Q9Y3R0
# T6 sequence (Q9Y3R0 999-1096, limits assumed, looked up): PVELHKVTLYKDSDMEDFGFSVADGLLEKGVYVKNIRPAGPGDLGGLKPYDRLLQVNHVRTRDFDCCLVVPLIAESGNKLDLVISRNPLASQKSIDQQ
# Assay: holdup assay
# Parameters: key: below the threshold = too weak to quantify, mostly under pKd 3.1 to 4
# Conditions: plain residues with an end cap or a label only (N-terminal biotin on a linker: ado-ado)
row,Binder,pKd
1,B1,below the threshold
2,B2,below the threshold
3,B3,below the threshold

# Target: DLG5_1, Q8TDM6
# Assay: holdup assay
# Parameters: key: below the threshold = too weak to quantify, mostly under pKd 3.1 to 4
# Conditions: plain residues with an end cap or a label only (N-terminal biotin on a linker: ado-ado)
# Sequence of DLG5_1, Q8TDM6 (Q8TDM6 617-713): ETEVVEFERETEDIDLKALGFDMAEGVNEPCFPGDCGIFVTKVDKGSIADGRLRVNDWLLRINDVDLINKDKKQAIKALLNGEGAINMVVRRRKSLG
row,Binder,pKd
1,B1,below the threshold
2,B2,below the threshold
3,B3,below the threshold

# Target: T7, RHPN1, Q8TCX5
# T7 sequence (Q8TCX5 508-602, limits assumed, looked up): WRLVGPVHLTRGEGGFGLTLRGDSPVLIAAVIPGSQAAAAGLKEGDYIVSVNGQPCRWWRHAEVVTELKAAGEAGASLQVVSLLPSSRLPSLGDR
# Assay: holdup assay
# Parameters: key: below the threshold = too weak to quantify, mostly under pKd 3.1 to 4
# Conditions: plain residues with an end cap or a label only (N-terminal biotin on a linker: ado-ado)
row,Binder,pKd
1,B1,below the threshold
2,B2,4.44
3,B3,4.58

# Target: T8, NHERF3_3, Q5T2W1
# T8 sequence (Q5T2W1 238-333, limits assumed, looked up): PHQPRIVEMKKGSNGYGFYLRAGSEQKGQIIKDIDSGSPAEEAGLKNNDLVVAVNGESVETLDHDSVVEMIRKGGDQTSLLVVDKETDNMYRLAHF
# Assay: holdup assay
# Parameters: key: below the threshold = too weak to quantify, mostly under pKd 3.1 to 4
# Conditions: plain residues with an end cap or a label only (N-terminal biotin on a linker: ado-ado)
row,Binder,pKd
1,B1,below the threshold
2,B2,below the threshold
3,B3,below the threshold

# Target: T9, MPDZ_5, O75970
# T9 sequence (O75970 695-796, limits assumed, looked up): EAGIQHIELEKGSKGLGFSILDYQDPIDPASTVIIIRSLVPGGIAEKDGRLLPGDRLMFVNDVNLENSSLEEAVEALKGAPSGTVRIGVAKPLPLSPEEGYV
# Assay: holdup assay
# Parameters: key: below the threshold = too weak to quantify, mostly under pKd 3.1 to 4
# Conditions: plain residues with an end cap or a label only (N-terminal biotin on a linker: ado-ado)
row,Binder,pKd
1,B1,below the threshold
2,B2,below the threshold
3,B3,below the threshold

# Target: T10, GRIP1_3, Q9Y3R0
# T10 sequence (Q9Y3R0 247-346, limits assumed, looked up): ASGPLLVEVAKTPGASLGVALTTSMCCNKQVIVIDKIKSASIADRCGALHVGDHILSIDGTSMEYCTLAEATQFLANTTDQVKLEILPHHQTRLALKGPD
# Assay: holdup assay
# Parameters: key: below the threshold = too weak to quantify, mostly under pKd 3.1 to 4
# Conditions: plain residues with an end cap or a label only (N-terminal biotin on a linker: ado-ado)
row,Binder,pKd
1,B1,below the threshold
2,B2,below the threshold
3,B3,below the threshold

# Target: GRID2IP_2, A4D2P6
# Assay: holdup assay
# Parameters: key: below the threshold = too weak to quantify, mostly under pKd 3.1 to 4
# Conditions: plain residues with an end cap or a label only (N-terminal biotin on a linker: ado-ado)
# Sequence of GRID2IP_2, A4D2P6 (A4D2P6 272-370): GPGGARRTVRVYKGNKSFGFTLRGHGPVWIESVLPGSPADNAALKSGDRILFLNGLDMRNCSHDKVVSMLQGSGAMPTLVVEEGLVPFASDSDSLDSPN
row,Binder,pKd
1,B1,below the threshold
2,B2,below the threshold
3,B3,3.97

# Target: MAST1, Q9Y2H9
# Assay: holdup assay
# Parameters: key: below the threshold = too weak to quantify, mostly under pKd 3.1 to 4
# Conditions: plain residues with an end cap or a label only (N-terminal biotin on a linker: ado-ado)
# Sequence of MAST1, Q9Y2H9 (Q9Y2H9 962-1065): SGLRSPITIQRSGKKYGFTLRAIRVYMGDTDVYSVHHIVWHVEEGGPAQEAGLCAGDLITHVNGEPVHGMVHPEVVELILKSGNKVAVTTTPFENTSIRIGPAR
row,Binder,pKd
1,B1,3.58
2,B2,4.31
3,B3,3.97

# Target: Inadl_5, Q8NI35
# Assay: holdup assay
# Parameters: key: below the threshold = too weak to quantify, mostly under pKd 3.1 to 4
# Conditions: plain residues with an end cap or a label only (N-terminal biotin on a linker: ado-ado)
# Sequence of Inadl_5, Q8NI35 (Q8NI35 673-780): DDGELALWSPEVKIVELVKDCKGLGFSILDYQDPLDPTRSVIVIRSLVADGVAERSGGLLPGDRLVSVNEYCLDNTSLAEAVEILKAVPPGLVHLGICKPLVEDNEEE
row,Binder,pKd
1,B1,below the threshold
2,B2,below the threshold
3,B3,below the threshold

# Target: T11, TX1BP3, O14907
# T11 sequence (O14907 10-122, limits assumed, looked up): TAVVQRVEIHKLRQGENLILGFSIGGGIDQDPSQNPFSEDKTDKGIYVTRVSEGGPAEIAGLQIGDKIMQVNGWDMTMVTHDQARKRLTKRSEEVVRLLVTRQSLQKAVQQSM
# Assay: holdup assay
# Parameters: key: below the threshold = too weak to quantify, mostly under pKd 3.1 to 4
# Conditions: plain residues with an end cap or a label only (N-terminal biotin on a linker: ado-ado)
row,Binder,pKd
1,B1,below the threshold
2,B2,below the threshold
3,B3,3.75

# Target: HTRA1, Q92743
# Assay: holdup assay
# Parameters: key: below the threshold = too weak to quantify, mostly under pKd 3.1 to 4
# Conditions: plain residues with an end cap or a label only (N-terminal biotin on a linker: ado-ado)
# Sequence of HTRA1, Q92743 (Q92743 360-477): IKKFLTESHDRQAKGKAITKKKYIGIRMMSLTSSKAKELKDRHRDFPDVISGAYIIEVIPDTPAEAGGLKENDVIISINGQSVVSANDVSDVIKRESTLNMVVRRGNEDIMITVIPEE
row,Binder,pKd
1,B1,4.18
2,B2,4.31
3,B3,4.04

# Target: T12, SNTA1, Q13424
# T12 sequence (Q13424 82-180, limits assumed, looked up): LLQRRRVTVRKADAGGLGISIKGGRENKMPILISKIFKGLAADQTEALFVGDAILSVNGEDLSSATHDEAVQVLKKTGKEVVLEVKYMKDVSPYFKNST
# Assay: holdup assay
# Parameters: key: below the threshold = too weak to quantify, mostly under pKd 3.1 to 4
# Conditions: plain residues with an end cap or a label only (N-terminal biotin on a linker: ado-ado)
row,Binder,pKd
1,B1,below the threshold
2,B2,4.68
3,B3,3.49

# Target: DLG2_2, Q15700
# Assay: holdup assay
# Parameters: key: below the threshold = too weak to quantify, mostly under pKd 3.1 to 4
# Conditions: plain residues with an end cap or a label only (N-terminal biotin on a linker: ado-ado)
row,Binder,pKd
1,B1,below the threshold
2,B2,4.07
3,B3,5.24
